The record followed here is patent US20230340123A1 (published 2023).

Experiment [1] addresses T1, cynomolgus BTLA expressed on HEK-293 cells (cynomolgus, UniProt A0A2K5W7M7 31-289).
T1 construct: whole, on cells; also called Cyno BTLA
Put plainly: flow cytometry (MFI) on HEK 293 cells expressing BTLA. A general note: In flow cytometry, cells or beads pass a laser one at a time.

Experiment [2] has as its target T2, human BTLA expressed on HEK-293 cells (human, UniProt Q7Z6A9 31-289).
T2 construct: whole, on cells
The experiment is described as above.

For another experiment, the target named is T3, cynoBTLA-human Fc (cynomolgus, UniProt A0A2K5W7M7 31-151).
T3 construct: not shown: human Fc
Put plainly: blocking ELISA: cynoBTLA-human Fc binding to coated human HVEM-ratIgG2a. For orientation: An ELISA detects its analyte on a solid surface through an enzyme-linked reagent.

In a further experiment the target is T4, human BTLA-human Fc (human, UniProt Q7Z6A9 31-151, limits assumed).
T4 construct: not shown: human Fc
Put plainly: blocking ELISA: BTLA-human Fc binding to coated human HVEM-ratIgG2a.

The next experiment has as its target T5, cynomolgus BTLA(ECD)-HIS (cynomolgus, UniProt A0A2K5W7M7 31-157).
T5 construct: extracellular domain; also called Cyno BTLA; not shown: HIS tag
Put plainly: ELISA, BTLA(ECD)-HIS coated, chemiluminescence (RLU).

A further experiment has as its target T6, human BTLA(ECD)-HIS (human, UniProt Q7Z6A9 31-157).
T6 construct: extracellular domain; not shown: HIS tag
The experiment is described as above.

The target of the next experiment is recombinant human BTLA (human, UniProt Q7Z6A9 31-151, limits assumed). Put plainly: Bio-Layer Interferometry (Octet), antibody captured by anti-human-Fc, BTLA in solution, 1:1 model. For orientation: In BLI a coated tip is dipped into the sample, and binding shifts an interference pattern.
The target in experiment [3] is T7, cynomolgus BTLA (analyte in Bio-Layer Interferometry) (cynomolgus, UniProt A0A2K5W7M7 31-151).
T7 construct: also called Cyno BTLA
The description is as above.

T7 sequence (A0A2K5W7M7 entry or part of it): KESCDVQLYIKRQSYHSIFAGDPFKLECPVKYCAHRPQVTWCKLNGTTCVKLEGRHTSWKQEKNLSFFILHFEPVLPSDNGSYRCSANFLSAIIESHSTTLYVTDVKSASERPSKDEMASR
T5 sequence (A0A2K5W7M7 entry or part of it): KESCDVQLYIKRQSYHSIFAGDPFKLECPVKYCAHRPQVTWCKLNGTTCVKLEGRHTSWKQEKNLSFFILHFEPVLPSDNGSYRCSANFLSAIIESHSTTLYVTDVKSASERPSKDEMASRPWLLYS
T1 sequence (A0A2K5W7M7 entry or part of it): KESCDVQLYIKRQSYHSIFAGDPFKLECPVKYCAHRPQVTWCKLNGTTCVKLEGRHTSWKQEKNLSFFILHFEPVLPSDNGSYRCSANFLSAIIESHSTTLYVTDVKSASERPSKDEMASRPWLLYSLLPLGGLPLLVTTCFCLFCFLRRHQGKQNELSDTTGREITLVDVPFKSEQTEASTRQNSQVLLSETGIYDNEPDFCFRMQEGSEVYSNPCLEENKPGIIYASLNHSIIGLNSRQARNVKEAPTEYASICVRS

B1: anti-BTLA antibody 15-C19A (antibody, V domains shown)
VH: QVQLQESGPGLVKPSETLSLTCTVSGGSISSYYWSWIRQPPGKGLEWIGYISYSGSTNYNPSLKSRVTISADTSKNQFSLKLSSVTAADTAVYYCARDFYYGMDVWGQGTTVTVSS
VL: AIQLTQSPSSLSASVGDRVTITCRASQGISSALAWYQQKPGKAPKLLIYDASSLESGVPSRFSGSGSGTDFTLTISSLQPEDFATYYCHQFDYYPTFGGGTKVEIK
The EC50 is the midpoint of the concentration-response curve. As a reminder, the IC50 is the point on the concentration scale where inhibition reaches its midpoint. Higher therefore signals lower potency. Broadly, the Kd is the concentration at which binding is half-saturated. For the molecule B1, the EC50 in experiment [1] worked out at 4.4 nM; in experiment [2], 5.5 nM; with cynomolgus BTLA(ECD)-HIS, 1.4 nM; with human BTLA(ECD)-HIS it was 0.8 nM. Besides, the IC50 in the experiment with cynoBTLA-human Fc turned out to be 2.4 nM; in the experiment with human BTLA-human Fc, 3.5 nM. Besides, the figures for the equilibrium dissociation constant (Kd) (with recombinant human BTLA; in experiment [3]) were 144 nM and 0.1 nM, respectively.
